From article PMC9482650, “Quantitative fragmentomics allow affinity mapping of interactomes” (Nature Communications, 2022)

T1: ARHGEF11, O15085
T1 sequence (O15085 42-136, limits assumed, looked up): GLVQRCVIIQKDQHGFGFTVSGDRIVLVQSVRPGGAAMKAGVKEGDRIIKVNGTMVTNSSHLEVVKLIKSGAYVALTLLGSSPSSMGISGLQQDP

T2: MPDZ_5, O75970
T2 sequence (O75970 695-796, limits assumed, looked up): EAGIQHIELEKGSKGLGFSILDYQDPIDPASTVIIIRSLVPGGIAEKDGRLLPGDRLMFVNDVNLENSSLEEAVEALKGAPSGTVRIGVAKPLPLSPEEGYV

T3: NHERF3_3, Q5T2W1
T3 sequence (Q5T2W1 238-333, limits assumed, looked up): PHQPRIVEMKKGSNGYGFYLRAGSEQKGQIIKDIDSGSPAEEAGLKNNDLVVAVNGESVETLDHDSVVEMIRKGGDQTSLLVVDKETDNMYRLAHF

T4: DLG3_3, Q92796
T4 sequence (Q92796 374-475, limits assumed, looked up): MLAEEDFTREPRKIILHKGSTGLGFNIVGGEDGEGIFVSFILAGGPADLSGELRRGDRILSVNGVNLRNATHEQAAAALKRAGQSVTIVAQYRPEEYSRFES

T5: GRIP1_5, Q9Y3R0
T5 sequence (Q9Y3R0 568-668, limits assumed, looked up): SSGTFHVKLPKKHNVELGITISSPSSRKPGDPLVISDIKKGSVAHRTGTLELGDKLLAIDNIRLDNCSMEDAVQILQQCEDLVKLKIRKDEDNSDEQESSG

T6: DFNB31_1, Q9P202
T6 sequence (Q9P202 135-233, limits assumed, looked up): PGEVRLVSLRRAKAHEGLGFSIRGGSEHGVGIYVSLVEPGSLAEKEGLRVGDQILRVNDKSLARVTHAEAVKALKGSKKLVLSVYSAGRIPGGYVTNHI

T7: GRIP1_2, Q9Y3R0
T7 sequence (Q9Y3R0 145-248, limits assumed, looked up): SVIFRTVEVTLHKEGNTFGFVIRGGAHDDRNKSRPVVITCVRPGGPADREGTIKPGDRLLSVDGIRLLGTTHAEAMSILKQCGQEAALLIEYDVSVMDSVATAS

T8: SNTB1, Q13884
T8 sequence (Q13884 107-205, limits assumed, looked up): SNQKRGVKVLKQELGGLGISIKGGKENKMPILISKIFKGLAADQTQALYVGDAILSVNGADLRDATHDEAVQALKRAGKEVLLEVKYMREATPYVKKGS

T9: APBA2_2, Q99767
T9 sequence (Q99767 654-744, limits assumed, looked up): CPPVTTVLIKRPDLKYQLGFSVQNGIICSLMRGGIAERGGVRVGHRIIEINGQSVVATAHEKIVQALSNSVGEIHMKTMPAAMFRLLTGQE

T10: MPP2, Q14168
T10 sequence (Q14168 180-250, limits assumed, looked up): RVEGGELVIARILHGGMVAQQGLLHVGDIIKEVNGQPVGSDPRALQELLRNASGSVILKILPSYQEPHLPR

T11: APBA1_1, Q02410
T11 sequence (Q02410 651-752, limits assumed, looked up): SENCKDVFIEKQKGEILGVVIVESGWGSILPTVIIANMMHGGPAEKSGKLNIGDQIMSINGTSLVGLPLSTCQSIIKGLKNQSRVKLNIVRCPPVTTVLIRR

T12: APBA2_1, Q99767
T12 sequence (Q99767 563-664, limits assumed, looked up): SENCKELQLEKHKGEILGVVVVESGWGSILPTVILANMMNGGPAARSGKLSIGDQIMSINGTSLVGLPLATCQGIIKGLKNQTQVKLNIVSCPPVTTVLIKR


Assays:
Assay in all cases: holdup assay
Parameters in all cases: key: below the threshold = too weak to quantify, mostly under pKd 3.1 to 4
Conditions in all cases: plain residues with an end cap or a label only (N-terminal biotin on a linker: ado-ado)
DLG1_2, Q12959 = molecular target: DLG1_2, Q12959
ARHGEF11, O15085 = molecular target: T1, ARHGEF11, O15085
MPDZ_5, O75970 = molecular target: T2, MPDZ_5, O75970
IL16_1, Q14005 = molecular target: IL16_1, Q14005
GRID2IP_2, A4D2P6 = molecular target: GRID2IP_2, A4D2P6
NHERF3_3, Q5T2W1 = molecular target: T3, NHERF3_3, Q5T2W1
TJP1_3, Q07157 = molecular target: TJP1_3, Q07157
IL16_3, Q14005 = molecular target: IL16_3, Q14005
NHERF4_4, Q86UT5 = molecular target: NHERF4_4, Q86UT5
DLG1_3, Q12959 = molecular target: DLG1_3, Q12959
DLG3_3, Q92796 = molecular target: T4, DLG3_3, Q92796
GRIP1_5, Q9Y3R0 = molecular target: T5, GRIP1_5, Q9Y3R0
FRMPD4, Q14CM0 = molecular target: FRMPD4, Q14CM0
CASK, O14936 = molecular target: CASK, O14936
DFNB31_1, Q9P202 = molecular target: T6, DFNB31_1, Q9P202
GRIP1_2, Q9Y3R0 = molecular target: T7, GRIP1_2, Q9Y3R0
SNTB1, Q13884 = molecular target: T8, SNTB1, Q13884
GORASP2, Q9H8Y8 = molecular target: GORASP2, Q9H8Y8
LNX1_1, Q8TBB1 = molecular target: LNX1_1, Q8TBB1
LNX1_2, Q8TBB1 = molecular target: LNX1_2, Q8TBB1
DLG4_1, P78352 = molecular target: DLG4_1, P78352
GOPC, Q9HD26 = molecular target: GOPC, Q9HD26
APBA2_2, Q99767 = molecular target: T9, APBA2_2, Q99767
MPP2, Q14168 = molecular target: T10, MPP2, Q14168
APBA1_1, Q02410 = molecular target: T11, APBA1_1, Q02410
APBA2_1, Q99767 = molecular target: T12, APBA2_1, Q99767

Chain of DLG4_1, P78352 (P78352 62-152): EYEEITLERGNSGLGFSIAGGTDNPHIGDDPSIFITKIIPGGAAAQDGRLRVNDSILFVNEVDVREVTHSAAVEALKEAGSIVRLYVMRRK
Chain of LNX1_1, Q8TBB1 (Q8TBB1 261-371): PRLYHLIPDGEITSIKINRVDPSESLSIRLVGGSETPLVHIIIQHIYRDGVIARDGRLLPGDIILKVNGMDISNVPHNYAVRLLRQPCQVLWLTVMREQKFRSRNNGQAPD
Chain of GRID2IP_2, A4D2P6 (A4D2P6 272-370): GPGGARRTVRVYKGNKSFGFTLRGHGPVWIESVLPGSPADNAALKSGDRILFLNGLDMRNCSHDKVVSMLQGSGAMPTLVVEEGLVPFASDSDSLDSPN
Chain of DLG1_3, Q12959 (Q12959 457-571): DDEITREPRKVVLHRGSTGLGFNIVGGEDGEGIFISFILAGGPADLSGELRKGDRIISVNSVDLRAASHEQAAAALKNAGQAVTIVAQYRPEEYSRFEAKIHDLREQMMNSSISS
Chain of CASK, O14936 (O14936 487-570): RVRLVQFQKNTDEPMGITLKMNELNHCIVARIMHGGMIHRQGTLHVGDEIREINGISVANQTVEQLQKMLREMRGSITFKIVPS
Chain of LNX1_2, Q8TBB1 (Q8TBB1 371-470): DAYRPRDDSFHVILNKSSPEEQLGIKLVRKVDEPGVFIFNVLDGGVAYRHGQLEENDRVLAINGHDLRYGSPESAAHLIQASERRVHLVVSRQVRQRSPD
Chain of IL16_1, Q14005 (Q14005 210-306): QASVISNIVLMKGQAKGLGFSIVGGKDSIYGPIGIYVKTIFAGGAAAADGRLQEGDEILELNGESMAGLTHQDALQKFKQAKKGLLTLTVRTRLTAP
Chain of IL16_3, Q14005 (Q14005 1107-1207): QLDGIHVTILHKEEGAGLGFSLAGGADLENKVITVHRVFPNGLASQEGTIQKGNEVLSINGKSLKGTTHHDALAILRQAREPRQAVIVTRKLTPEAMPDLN
Chain of TJP1_3, Q07157 (Q07157 416-512): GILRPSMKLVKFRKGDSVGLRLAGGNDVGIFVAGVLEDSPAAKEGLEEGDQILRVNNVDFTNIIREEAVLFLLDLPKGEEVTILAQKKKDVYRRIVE
Chain of NHERF4_4, Q86UT5 (Q86UT5 464-550): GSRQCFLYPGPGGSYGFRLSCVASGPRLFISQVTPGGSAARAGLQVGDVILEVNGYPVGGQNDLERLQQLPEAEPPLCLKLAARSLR
Chain of FRMPD4, Q14CM0 (Q14CM0 67-160): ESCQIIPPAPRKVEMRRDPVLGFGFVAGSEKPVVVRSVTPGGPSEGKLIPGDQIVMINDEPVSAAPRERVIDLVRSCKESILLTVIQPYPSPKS
Chain of DLG1_2, Q12959 (Q12959 314-412): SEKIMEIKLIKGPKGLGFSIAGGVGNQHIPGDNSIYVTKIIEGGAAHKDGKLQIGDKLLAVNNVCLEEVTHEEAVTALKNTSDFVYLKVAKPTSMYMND

| Binder | pKd (DLG1_2, Q12959) | pKd (ARHGEF11, O15085) | pKd (MPDZ_5, O75970) | pKd (IL16_1, Q14005) | pKd (GRID2IP_2, A4D2P6) | pKd (NHERF3_3, Q5T2W1) | pKd (TJP1_3, Q07157) | pKd (IL16_3, Q14005) | pKd (NHERF4_4, Q86UT5) | pKd (DLG1_3, Q12959) | pKd (DLG3_3, Q92796) | pKd (GRIP1_5, Q9Y3R0) | pKd (FRMPD4, Q14CM0) | pKd (CASK, O14936) | pKd (DFNB31_1, Q9P202) | pKd (GRIP1_2, Q9Y3R0) | pKd (SNTB1, Q13884) | pKd (GORASP2, Q9H8Y8) | pKd (LNX1_1, Q8TBB1) | pKd (LNX1_2, Q8TBB1) | also measured |
| --- | --- | --- | --- | --- | --- | --- | --- | --- | --- | --- | --- | --- | --- | --- | --- | --- | --- | --- | --- | --- | --- |
| FTLPAESSEI [PLEKHG7, Q6ZR37] | below the threshold | below the threshold | below the threshold | below the threshold | 4.2 | below the threshold | below the threshold | below the threshold | below the threshold | below the threshold | below the threshold | below the threshold | below the threshold | below the threshold | 4.39 | below the threshold | below the threshold | below the threshold | below the threshold | below the threshold | pKd (DLG4_1, P78352): below the threshold; pKd (GOPC, Q9HD26): below the threshold; pKd (APBA2_2, Q99767): below the threshold; pKd (MPP2, Q14168): below the threshold; pKd (APBA1_1, Q02410): below the threshold; pKd (APBA2_1, Q99767): below the threshold |
| IPGKEFDTPL [PLCB1, Q9NQ66] | 3.57 | below the threshold | below the threshold | below the threshold | below the threshold | below the threshold | below the threshold | below the threshold | below the threshold | below the threshold | below the threshold | below the threshold | 4.95 | below the threshold | 4.03 | below the threshold | 3.96 | below the threshold | below the threshold | below the threshold | pKd (DLG4_1, P78352): 3.51; pKd (GOPC, Q9HD26): below the threshold; pKd (APBA2_2, Q99767): below the threshold; pKd (MPP2, Q14168): below the threshold; pKd (APBA1_1, Q02410): below the threshold; pKd (APBA2_1, Q99767): below the threshold |
| NLQEHSTTSV [RSBN1, Q5VWQ0] | 3.99 | 4.13 | below the threshold | below the threshold | 3.8 | below the threshold | below the threshold | below the threshold | below the threshold | 3.76 | 3.73 | below the threshold | below the threshold | below the threshold | 3.72 | below the threshold | 3.99 | below the threshold | below the threshold | below the threshold | pKd (DLG4_1, P78352): 3.84; pKd (GOPC, Q9HD26): 3.57; pKd (APBA2_2, Q99767): below the threshold; pKd (MPP2, Q14168): below the threshold; pKd (APBA1_1, Q02410): below the threshold; pKd (APBA2_1, Q99767): below the threshold |

Now from value to binder, other results behind:

| pKd (DLG1_2, Q12959) | pKd (ARHGEF11, O15085) | pKd (MPDZ_5, O75970) | pKd (IL16_1, Q14005) | pKd (GRID2IP_2, A4D2P6) | pKd (NHERF3_3, Q5T2W1) | pKd (TJP1_3, Q07157) | pKd (IL16_3, Q14005) | pKd (NHERF4_4, Q86UT5) | pKd (DLG1_3, Q12959) | pKd (DLG3_3, Q92796) | pKd (GRIP1_5, Q9Y3R0) | pKd (FRMPD4, Q14CM0) | pKd (CASK, O14936) | pKd (DFNB31_1, Q9P202) | pKd (GRIP1_2, Q9Y3R0) | pKd (SNTB1, Q13884) | pKd (GORASP2, Q9H8Y8) | pKd (LNX1_1, Q8TBB1) | pKd (LNX1_2, Q8TBB1) | Binder | also measured |
| --- | --- | --- | --- | --- | --- | --- | --- | --- | --- | --- | --- | --- | --- | --- | --- | --- | --- | --- | --- | --- | --- |
| 3.52 | 4.13 | below the threshold | below the threshold | below the threshold | below the threshold | below the threshold | below the threshold | below the threshold | below the threshold | below the threshold | below the threshold | below the threshold | below the threshold | below the threshold | below the threshold | below the threshold | below the threshold | below the threshold | 4.1 | HLRQQGSVEV [EPHB6, O15197] | pKd (DLG4_1, P78352): 3.5; pKd (GOPC, Q9HD26): below the threshold; pKd (APBA2_2, Q99767): below the threshold; pKd (MPP2, Q14168): below the threshold; pKd (APBA1_1, Q02410): below the threshold; pKd (APBA2_1, Q99767): below the threshold |
| 5.26 | 4.13 | below the threshold | 3.77 | below the threshold | below the threshold | below the threshold | below the threshold | below the threshold | 4.38 | 4.47 | below the threshold | below the threshold | below the threshold | 3.64 | below the threshold | 4.55 | 3.9 | below the threshold | 3.89 | TGLWKSETTV [ADGRA2, Q96PE1] | pKd (DLG4_1, P78352): 4.94; pKd (GOPC, Q9HD26): 3.78; pKd (APBA2_2, Q99767): below the threshold; pKd (MPP2, Q14168): below the threshold; pKd (APBA1_1, Q02410): below the threshold; pKd (APBA2_1, Q99767): below the threshold |
